According to US20260209386A1 (MYTHIC THERAPEUTICS, published 2026):
Values belong to the binder of their own block, whether it stands above or below them.

Columns and labels:
[1] = molecular target: T1, Human PTK7 Protein, His Tag (Acro Biosystems) (human, UniProt Q13308 31-704); experiment: BLI (Octet), antibody on anti-human Fc sensor, 50 nM PTK7; grade 1 = pH dependent binding relative to parent
T1 construct: Bought His-tagged protein; also called CCK4; not shown: His tag
T1 sequence: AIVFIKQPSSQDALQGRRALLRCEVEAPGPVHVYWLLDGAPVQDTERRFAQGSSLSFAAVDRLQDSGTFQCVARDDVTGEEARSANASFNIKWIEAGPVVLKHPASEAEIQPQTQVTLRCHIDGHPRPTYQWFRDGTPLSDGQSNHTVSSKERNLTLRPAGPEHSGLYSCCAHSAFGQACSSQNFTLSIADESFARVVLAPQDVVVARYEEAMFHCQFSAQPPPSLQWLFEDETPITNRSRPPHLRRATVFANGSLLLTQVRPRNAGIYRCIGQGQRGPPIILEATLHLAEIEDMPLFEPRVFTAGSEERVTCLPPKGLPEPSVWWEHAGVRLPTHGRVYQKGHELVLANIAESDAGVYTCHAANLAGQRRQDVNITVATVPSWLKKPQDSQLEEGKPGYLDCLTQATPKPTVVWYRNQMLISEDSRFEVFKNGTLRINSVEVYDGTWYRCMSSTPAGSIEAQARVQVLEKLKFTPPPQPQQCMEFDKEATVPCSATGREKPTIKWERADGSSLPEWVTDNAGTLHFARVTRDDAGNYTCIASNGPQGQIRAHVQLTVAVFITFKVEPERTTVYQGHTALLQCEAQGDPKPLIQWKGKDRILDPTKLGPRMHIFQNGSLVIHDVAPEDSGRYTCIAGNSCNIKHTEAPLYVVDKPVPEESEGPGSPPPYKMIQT

[2] = molecular target: T2, Human PTK7 Protein, His Tag, Acro Biosystems (human, UniProt Q13308 31-704); experiment: BLI, anti-human Fc capture, 50 nM PTK7; 1 = pH dependent binding relative to parent
T2 construct: Bought recombinant protein; also called CCK4; not shown: His tag
T2 sequence: T1 sequence

- binding result [1]: binds
B1: MYT11093 (antibody, V domains shown)
VH: EVQLVESGGGLVQPGGSLRLSCTASGLSLSSYWMSWVRQAPGKGLEWVGVISAGGNTYYANWAKGRFTISRDTSKNTVYLQMNSLRAEDTAVYFCARGDDGYTNAAYVSNLWGQGTLVTVSS
VL: EIVMTQSPSTLSASVGDRVIITCQASQSISSWLSWYQQKPGKAPKLLIYKASTLASGVPSRFSGSGSGAEFTLTISSLQPDDFATYYCQSYHDSTTIAFGQGTKLTVL
notes: MYT9361 LC variant

- binding result [2]: binds
B2: MYT11322 (antibody, V domains shown)
VH: EVQLVESGGGLVQPGGSLRLSCTASGIDLSRYSMGWVRQAPGKGLEWVGIISYGGSTYYASWAKGRFTISRDTSKNTVYLQMNSLRAEDTAVYFCARVGYPGYSGYGYAFDAFDPWGQGTLVTVSS
VL: EIVMTQSPSTLSASVGDRVIITCQSSKSVYNDNWLSWYQQKPGKAPKLLIYGASTLHSGVPSRFSGSGSGAEFTLTISSLQPDDFATYYCAGGYSSSSDNGFGQGTKLTVL
notes: MYT9792 variant, His at VL 57 (L2 06)
